Experiment [1] deals with TW2 (TrpR-Geminin coiled-coil-SpyTag-Geminin coiled-coil-MetJ) (UniProt P0A881). The experiment in a line: mass photometry.
Experiment [2] addresses TW1 (DtxR-Geminin coiled-coil-SpyCatcher) (UniProt P0DJL7). The experiment in a line: mass photometry.

One may read the stoichiometry N as a count of units in the complex or per binding partner. Turning to “TW2 (TrpR-Geminin coiled-coil-SpyTag-Geminin coiled-coil-MetJ) (from UniProt P0A881 2-108; O75496 110-145; O75496 110-145; P0A8U6 2-105)”, the stoichiometry N in experiment [1] is 2.

“TW1 (DtxR-Geminin coiled-coil-SpyCatcher) (from UniProt P0DJL7 2-121; O75496 110-145)” showed a stoichiometry N in experiment [2] of 2.
